From patent publication US20030109481, “Tumour-cell specific gene expression and its use in cancer therapy” (published 2003) come the findings set out here.

Settings in all cases: tags: baculovirus-expressed
Data set [1] addresses T1, E2F-1/DP1 heterodimer (UniProt Q01094;Q14186 Q01094:1-437,Q14186:1-410). Briefly: EMSA; stated as similar results to first mutation. On the technique in general: A gel shift assay detects complexes by their altered migration in electrophoresis.
Data set [2] concerns the target T1, E2F-1/DP1 heterodimer. Put plainly: EMSA.
Data set [3] concerns the target T1, E2F-1/DP1 heterodimer. Put plainly: EMSA; mutation abolished E2F-1 binding; promoter activity reduced about 2-fold and E2F-1 activation suppressed.
The target in data set [4] is T1, E2F-1/DP1 heterodimer. Briefly: EMSA; mutation abolishes binding; promoter activity reduced at least 2-fold but not activation by E2F-1.

T1 sequence (Q01094 whole entry, chain 1 of 2): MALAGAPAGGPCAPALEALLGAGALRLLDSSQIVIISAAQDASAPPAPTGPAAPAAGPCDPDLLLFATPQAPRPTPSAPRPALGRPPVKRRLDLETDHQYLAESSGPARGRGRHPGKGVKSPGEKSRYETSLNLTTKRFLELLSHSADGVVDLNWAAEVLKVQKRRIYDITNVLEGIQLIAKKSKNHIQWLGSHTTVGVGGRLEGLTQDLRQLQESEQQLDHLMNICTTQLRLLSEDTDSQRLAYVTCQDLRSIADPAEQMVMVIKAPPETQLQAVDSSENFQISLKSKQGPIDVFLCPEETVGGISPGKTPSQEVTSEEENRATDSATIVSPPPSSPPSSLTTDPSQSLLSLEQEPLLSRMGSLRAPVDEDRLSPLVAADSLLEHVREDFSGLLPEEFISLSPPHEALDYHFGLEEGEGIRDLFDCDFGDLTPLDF
T1 sequence (Q14186 whole entry, chain 2 of 2): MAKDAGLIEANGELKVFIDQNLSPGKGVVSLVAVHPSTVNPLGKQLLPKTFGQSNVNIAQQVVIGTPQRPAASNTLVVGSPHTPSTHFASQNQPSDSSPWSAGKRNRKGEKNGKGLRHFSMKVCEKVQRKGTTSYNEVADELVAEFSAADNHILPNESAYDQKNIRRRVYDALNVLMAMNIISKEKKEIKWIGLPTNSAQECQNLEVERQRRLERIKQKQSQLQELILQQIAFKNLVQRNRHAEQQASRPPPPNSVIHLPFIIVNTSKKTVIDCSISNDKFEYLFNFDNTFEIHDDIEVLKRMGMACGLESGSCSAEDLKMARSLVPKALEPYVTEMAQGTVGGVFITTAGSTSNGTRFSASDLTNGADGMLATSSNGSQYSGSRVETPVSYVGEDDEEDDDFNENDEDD

B1: region 2 mutant 3 (dsDNA)
DNA 1: AATCCCGCCCGGATCCGCAGG
DNA 2: CCTGCGGATCCGGGCGGGATT
B1: the binding result in the data set with E2F-1/DP1 heterodimer [1] is reported as “no binding”.

B2: region 2 mutant 2 (dsDNA)
DNA 1: AATCCATCCCGGCACCTCAGG
DNA 2: CCTGAGGTGCCGGGATGGATT
For B2, the binding result in the data set with E2F-1/DP1 heterodimer [1] is listed as “no binding”.

B3: Skp2 promoter region 3 (dsDNA)
DNA 1: AGAGCGGGATGCAGAACTCCGCGCGCGCGGTGG
DNA 2: CCACCGCGCGCGCGGAGTTCTGCATCCCGCTCT
In the case of B3, the binding result with E2F-1/DP1 heterodimer [2] is given as “binds”.

B4: Skp2 promoter region 1 (dsDNA)
DNA 1: GCTCCGGGAAAA
DNA 2: TTTTCCCGGAGC
In the case of B4, the binding result in the data set with E2F-1/DP1 heterodimer [2] is “no binding”.

B5: Skp2 promoter region 2 (dsDNA)
DNA 1: AATCCCGCCCGGCGCCGCAGG
DNA 2: CCTGCGGCGCCGGGCGGGATT
Consider B5, for which the binding result with E2F-1/DP1 heterodimer [2] is “binds”.

B6: region 3 mutant (dsDNA)
DNA 1: AGAGCATGCAGAACTCCGCACGAGCGGTGG
DNA 2: CCACCGCTCGTGCGGAGTTCTGCATGCTCT
Regarding B6, in the data set with E2F-1/DP1 heterodimer [3], the binding result is on record as “no binding”.

B7: Skp2 promoter region 4 (dsDNA)
DNA 1: AGTTCGCGGGTCC
DNA 2: GGACCCGCGAACT
B7: the binding result in the data set with E2F-1/DP1 heterodimer [2] is “binds”.

B8: region 2 mutant 4 (dsDNA)
DNA 1: AATCCCGCCCGGCGCATCAGG
DNA 2: CCTGATGCGCCGGGCGGGATT
Take B8: the binding result with E2F-1/DP1 heterodimer [1] was “no binding”.

B9: region 2 mutant 1 (dsDNA)
DNA 1: AATCCCACCCGGCACCTCAGG
DNA 2: CCTGAGGTGCCGGGTGGGATT
On to B9, for which the binding result in the data set with E2F-1/DP1 heterodimer [4] is recorded as “no binding”.
